Key:
HLA-A2 (HLA-A*0201) [1] = molecular target: T1, HLA-A2 (HLA-A*0201) (human); experiment: assembly assay: HLA-A2 stabilisation, T2 cells, IP, IEF gel
T1 construct: MHC class I molecule to which the peptide is added in the assembly assay (T2 cells); folded molecules are immunoprecipitated with conformation-dependent antibody

HLA-B35 [2] = molecular target: HLA-B35 (human); experiment: assembly assay: HLA-B35 stabilisation, T2-B35 lysate, W6/32 IP, IEF gel
HLA-A1 (HLA-A*0101) = HLA-A1 (HLA-A*0101) (human); experiment: assembly assay: HLA stabilisation, TAP-deficient cell lysate, W6/32 IP, IEF gel
HLA-B35 [3] = molecular target: HLA-B35 (human); experiment: assembly assay: HLA-B35 stabilisation; against sur51-59
HLA-B35 [4] = molecular target: HLA-B35 (human); experiment: assembly assay: HLA-B35 stabilisation; against sur46-54
HLA-A3 (HLA-A*0301) = HLA-A3 (HLA-A*0301) (human); experiment: assembly assay: HLA stabilisation, TAP-deficient cell lysate, W6/32 IP, IEF gel
HLA-A11 (HLA-A*1101) = HLA-A11 (HLA-A*1101) (human); experiment: as above
HLA-A2 (HLA-A*0201) [5] = molecular target: T1, HLA-A2 (HLA-A*0201); experiment: as above

B1: Sur1 (Survivin96-104) (peptide)
peptide: LTLGEFLKL
notes: also called Sur96-104
- C50 (HLA-A2 (HLA-A*0201) [1]): > 100 µM

B2: Sur1L2 (peptide)
peptide: LLLGEFLKL
notes: Analogue of survivin96-104 (Sur1) with T at position 2 replaced by L
- C50 (HLA-A2 (HLA-A*0201) [1]): 1 µM

B3: Sur1M2 (peptide)
peptide: LMLGEFLKL
notes: Analogue of survivin96-104 (Sur1) with T at position 2 replaced by M; also called modified survivin96-104
- C50 (HLA-A2 (HLA-A*0201) [1]): 1 µM

B4: Sur6-14 (Survivin6-14) (peptide)
peptide: LPPAWQPFL
- C50 (HLA-B35 [2]): > 100 µM

B5: Sur34-43 (Survivin34-43) (peptide)
peptide: TPERMAEAGF
notes: also called sur34-46 (as printed once)
- binding result (HLA-A1 (HLA-A*0101)): no binding (tested: 40, 4, 0.4, 0.04 µM)
- C50 (HLA-B35 [2]): > 100 µM

B6: sur34Y9 (peptide)
peptide: TPERMAEAGY
notes: Sur34-43 with Y at the C-terminus
- binding result (HLA-A1 (HLA-A*0101)): no binding (tested: 40, 4, 0.4, 0.04 µM)

B7: Sur46-54 (Survivin46-54) (peptide)
peptide: CPTENEPDL
- C50 (HLA-B35 [2]): 20 µM

B8: Sur51Y9 (peptide)
peptide: EPDLAQCFY
notes: Analogue of survivin51-59 with the C-terminal F replaced by Y
- fold higher affinity relative to the native peptide (HLA-B35 [3]): 5 to 10 fold
- C50 (HLA-B35 [2]): 1.5 µM

B9: Sur51-59 (Survivin51-59) (peptide)
peptide: EPDLAQCFF
- binding result (HLA-A1 (HLA-A*0101)): no binding (tested: 40, 4, 0.4, 0.04 µM)
- C50 (HLA-B35 [2]): 13 µM

B10: Sur46Y9 (peptide)
peptide: CPTENEPDY
notes: Analogue of survivin46-54 with the C-terminal L replaced by Y
- C50 (HLA-B35 [2]): 4 µM
- fold higher affinity relative to the native peptide (HLA-B35 [4]): 5 to 10 fold

B11: Sur3 (Survivin130-138) (peptide)
peptide: KVRRAIEQL
- C50 (HLA-A2 (HLA-A*0201) [1]): > 100 µM

B12: Sur6 (Survivin101-109) (peptide)
peptide: FLKLDRERA
- C50 (HLA-A2 (HLA-A*0201) [1]): 30 µM

B13: Sur93-101 (peptide)
peptide: FEELTLGEF
notes: also called Survivin93-101
- C50 (HLA-A1 (HLA-A*0101)): > 100 µM

B14: Sur93S2 (peptide)
peptide: FSELTLGEF
notes: Sur93-101 with S at position 2
- C50 (HLA-A1 (HLA-A*0101)): 30 µM

B15: Sur93T2 (peptide)
peptide: FTELTLGEF
notes: Sur93-101 with T at position 2
- C50 (HLA-A1 (HLA-A*0101)): 1 µM

B16: sur93Y9 (peptide)
peptide: FEELTLGEY
notes: Sur93-101 with Y at the C-terminus
- binding result (HLA-A1 (HLA-A*0101)): no binding (tested: 40, 4, 0.4, 0.04 µM)

B17: Sur92-101 (peptide)
peptide: QFEELTLGEF
notes: also called Survivin92-101
- C50 (HLA-A1 (HLA-A*0101)): 2 µM

B18: Sur92S2 (peptide)
peptide: QSEELTLGEF
notes: Sur92-101 with S at position 2
- C50 (HLA-A1 (HLA-A*0101)): 100 µM

B19: Sur92T2 (peptide)
peptide: QTEELTLGEF
notes: Sur92-101 with T at position 2
- C50 (HLA-A1 (HLA-A*0101)): 2 µM

B20: sur92Y9 (peptide)
peptide: QFEELTLGEY
notes: Sur92-101 with Y at the C-terminus
- binding result (HLA-A1 (HLA-A*0101)): no binding (tested: 40, 4, 0.4, 0.04 µM)

B21: Sur8 (Survivin5-14) (peptide)
peptide: TLPPAWQPFL
- C50 (HLA-A2 (HLA-A*0201) [1]): 30 µM

B22: Sur38Y9 (peptide)
peptide: MAEAGFIHY
notes: Sur38-46 with C changed to Y at P9
- C50 (HLA-A1 (HLA-A*0101)): 0.8 µM

B23: Sur38-46 (peptide)
peptide: MAEAGFIHC
notes: also called Survivin38-46
- binding result (HLA-A1 (HLA-A*0101)): no binding (tested: 40, 4, 0.4, 0.04 µM)

B24: Sur47Y10 (peptide)
peptide: PTENEPDLAY
notes: Sur47-56 with Q changed to Y at P10
- C50 (HLA-A1 (HLA-A*0101)): 0.4 µM

B25: Sur47-56 (peptide)
peptide: PTENEPDLAQ
notes: also called Survivin47-56
- binding result (HLA-A1 (HLA-A*0101)): no binding (tested: 40, 4, 0.4, 0.04 µM)

B26: Sur 95-103 (peptide)
peptide: ELTLGEFLK
- C50 (HLA-A3 (HLA-A*0301)): > 100 µM
- binding result (HLA-A11 (HLA-A*1101)): no binding (tested: 40, 4, 0.4, 0.04 µM)

B27: Sur 112-120 (peptide)
peptide: KIAKETNNK
- C50 (HLA-A3 (HLA-A*0301)): 2 µM
- C50 (HLA-A11 (HLA-A*1101)): 1 µM

B28: Sur 53-62 (peptide)
peptide: DLAQCFFCFK
notes: also called Survivin53-62
- C50 (HLA-A3 (HLA-A*0301)): 100 µM
- C50 (HLA-A11 (HLA-A*1101)): 5 µM

B29: Sur9 (Survivin95-104) (peptide)
peptide: ELTLGEFLKL
notes: also called Sur95-104
- C50 (HLA-A2 (HLA-A*0201) [1]): 10 µM

B30: Sur 112-121 (peptide)
peptide: KIAKETNNKK
- C50 (HLA-A3 (HLA-A*0301)): 1 µM
- C50 (HLA-A11 (HLA-A*1101)): > 100 µM

B31: Sur5K9 (peptide)
peptide: TLPPAWQPK
notes: Sur5-13 with the C-terminal F replaced by K
- C50 (HLA-A3 (HLA-A*0301)): 2 µM

B32: Sur54L2 (peptide)
peptide: LLQCFFCFK
notes: Sur54-62 with A at position 2 replaced by L
- C50 (HLA-A3 (HLA-A*0301)): 1 µM

B33: Sur18K10 (peptide)
peptide: RISTFKNWPK
notes: Sur18-27 with F changed to K at P10
- C50 (HLA-A3 (HLA-A*0301)): 0.02 µM

B34: Sur 18-27 (peptide)
peptide: RISTFKNWPF
notes: also called Survivin18-27
- binding result (HLA-A3 (HLA-A*0301)): no binding (tested: 100, 10, 1, 0.1, 0.01 µM)
- binding result (HLA-A11 (HLA-A*1101)): no binding (tested: 40, 4, 0.4, 0.04 µM)

B35: Sur113L2 (peptide)
peptide: ILKETNNKKK
notes: Sur113-122 with A at position 2 replaced by L
- C50 (HLA-A3 (HLA-A*0301)): > 100 µM

B36: Sur 113-122 (peptide)
peptide: IAKETNNKKK
- binding result (HLA-A3 (HLA-A*0301)): no binding (tested: 100, 10, 1, 0.1, 0.01 µM)
- binding result (HLA-A11 (HLA-A*1101)): no binding (tested: 40, 4, 0.4, 0.04 µM)

B37: SurEx3-A3-1 (peptide)
peptide: TIRRKNLRK
- C50 (HLA-A3 (HLA-A*0301)): 0.5 µM

B38: Sur2 (Survivin133-141) (peptide)
peptide: RAIEQLAAM
- binding result (HLA-A2 (HLA-A*0201) [1]): no binding

B39: Sur49-58 (peptide)
peptide: ENEPDLAQCF
- binding result (HLA-A1 (HLA-A*0101)): no binding (tested: 40, 4, 0.4, 0.04 µM)

B40: sur49Y9 (peptide)
peptide: ENEPDLAQCY
notes: Sur49-58 with Y at the C-terminus
- binding result (HLA-A1 (HLA-A*0101)): no binding (tested: 40, 4, 0.4, 0.04 µM)

B41: Sur14-22 (peptide)
peptide: LKDHRISTF
- binding result (HLA-A1 (HLA-A*0101)): no binding (tested: 40, 4, 0.4, 0.04 µM)

B42: sur14Y9 (peptide)
peptide: LKDHRISTY
notes: Sur14-22 with Y at the C-terminus
- binding result (HLA-A1 (HLA-A*0101)): no binding (tested: 40, 4, 0.4, 0.04 µM)

B43: Sur4-14 (peptide)
peptide: PTLPPAWQPFL
- binding result (HLA-A2 (HLA-A*0201) [5]): no binding (tested: 100, 10, 1, 0.1, 0.01 µM)

B44: Sur54-64 (peptide)
peptide: LAQCFFCFKEL
- binding result (HLA-A2 (HLA-A*0201) [5]): no binding (tested: 100, 10, 1, 0.1, 0.01 µM)

B45: Sur88-98 (peptide)
peptide: SVKKQFEELTL
- binding result (HLA-A2 (HLA-A*0201) [5]): no binding (tested: 100, 10, 1, 0.1, 0.01 µM)

B46: Sur103-113 (peptide)
peptide: KLDRERAKNKI
- binding result (HLA-A2 (HLA-A*0201) [5]): no binding (tested: 100, 10, 1, 0.1, 0.01 µM)

B47: Sur 53-61 (peptide)
peptide: DLAQCFFCF
- binding result (HLA-A3 (HLA-A*0301)): no binding (tested: 100, 10, 1, 0.1, 0.01 µM)
- binding result (HLA-A11 (HLA-A*1101)): no binding (tested: 40, 4, 0.4, 0.04 µM)

B48: Sur53K9 (peptide)
peptide: DLAQCFFCK
notes: Sur53-61 with the C-terminal F replaced by K
- binding result (HLA-A3 (HLA-A*0301)): no binding (tested: 100, 10, 1, 0.1, 0.01 µM)

B49: Sur 84-93 (peptide)
peptide: CAFLSVKKQF
- binding result (HLA-A3 (HLA-A*0301)): no binding (tested: 100, 10, 1, 0.1, 0.01 µM)
- binding result (HLA-A11 (HLA-A*1101)): no binding (tested: 40, 4, 0.4, 0.04 µM)

B50: Sur 101-110 (peptide)
peptide: FLKLDRERAK
- binding result (HLA-A3 (HLA-A*0301)): no binding (tested: 100, 10, 1, 0.1, 0.01 µM)
- binding result (HLA-A11 (HLA-A*1101)): no binding (tested: 40, 4, 0.4, 0.04 µM)

B51: Sur 103-112 (peptide)
peptide: KLDRERAKNK
- binding result (HLA-A3 (HLA-A*0301)): no binding (tested: 100, 10, 1, 0.1, 0.01 µM)
- binding result (HLA-A11 (HLA-A*1101)): no binding (tested: 40, 4, 0.4, 0.04 µM)

B52: Sur5 (Survivin88-96) (peptide)
peptide: SVKKQFEEL
- binding result (HLA-A2 (HLA-A*0201) [1]): no binding

B53: Sur13K9 (peptide)
peptide: FLKDHRISTK
notes: Sur13-22 with the C-terminal F replaced by K
- binding result (HLA-A3 (HLA-A*0301)): no binding (tested: 100, 10, 1, 0.1, 0.01 µM)

B54: SurEx3-A3-2 (peptide)
peptide: PTIRRKNLRK
- binding result (HLA-A3 (HLA-A*0301)): no binding (tested: 100, 10, 1, 0.1, 0.01 µM)

B55: Sur2b-A3-1 (peptide)
peptide: RITREEHKK
- binding result (HLA-A3 (HLA-A*0301)): no binding (tested: 100, 10, 1, 0.1, 0.01 µM)

B56: Sur7 (Survivin127-135) (peptide)
peptide: TAKKVRRAI
- binding result (HLA-A2 (HLA-A*0201) [1]): no binding

B57: Sur10 (Survivin126-135) (peptide)
peptide: ETAKKVRRAI
- binding result (HLA-A2 (HLA-A*0201) [1]): no binding
